Experimental data: the supplement of paper PMC12667976
± gives the standard error.

B1: library; numbered along this chain (parent)
chain: MATDAALRRLLRLHRTEIAVAVDSAFPLLHALADHDVVPEDKFQETLHLKEKEGCPQAFHALLSWLLTQDSTAILDFWRVLFKDYNLERYGRLQPILDSFPKDVDLSQPRKGRKPPAVPKALVPPPRLPTKRKASEEARAAAPAALTPRGTASPGSQLKAKPPKKPESSAEQQRLPLGNGIQTMSASVQRAVAMSSGDVPGARGAVEGILIQQVFESGGSKKCIQVGGEFYTPSKFEDSGSGKNKARSSSGPKPLVRAKGAQGAAPGGGEARLGQQGSVPAPLALPSDPQLHQKNEDECAVCRDGGELICCDGCPRAFHLACLSPPLREIPSGTWRCSSCLQATVQEVQPRAEEPRPQEPPVETPLPPGLRSAGEEVRGPPGEPLAGMDTTLVYKHLPAPPSAAPLPGLDSSALHPLLCVGPEGQQNLAPGARCGVCGDGTDVLRCTHCAAAFHWRCHFPAGTSRPGTGLRCRSCSGDVTPAPVEGVLAPSPARLAPGPAKDDTASHEPALHRDDLESLLSEHTFDGILQWAIQSMARPAAPFPS

Variants of: B1
Assay: AIRE transcriptional activation functional score (insulin promoter-GFP; nonsense median 0, synonymous median 1) (normalised score); higher = higher AIRE activity (more reporter activation)
Conditions: with insulin promoter-GFP reporter in HEK293
Protocol: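 Deep mutational scan of full-length human AIRE (codon-optimized cDNA, DT-POPCode NNN libraries over three regions) integrated at a Bxb1 landing pad in HEK293 cells carrying an insulin core promoter-GFP reporter at a Flp-In site. Cells were sorted for the top 10% GFP about 14 days after transfection. Variant frequency log-ratios (select vs non-select, TileSeq) were rescaled so that the nonsense median is 0 and the synonymous median is 1, then averaged over biological replicates.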

Variant | AIRE transcriptional activation functional score
I181F | 1.59 ± 0.068
G219V | 1.14 ± 0.2
E359K | 0.82 ± 0.099
A170H | 1.86 ± 0.43
S153V | 0.888 ± 0.29
S153L | 1.16 ± 0.42
R247T | 0.898 ± 0.24
S491H | 1.42 ± 0.061
S491L | 0.845 ± 0.38
P497N | 1.05 ± 0.14
P129R | 0.451 ± 0.35
L397H | 0.0686 ± 0.092
E88D | 0.357 ± 0.23
E88A | 1.18 ± 0.46
A399R | 0.779 ± 0.2
G180C | 1.24 ± 0.26
A33D | -1.07 ± 0.73
G197Y | 0.74 ± 0.054
G197P | 1.23 ± 0.3
P481L | 0.8 ± 0.19
P115A | 0.798 ± 0.66
D105R | 0.481 ± 0.63
S324H | 0.589 ± 0.076
S324P | 0.628 ± 0.22

Variant | AIRE transcriptional activation functional score
V345H | 0.756 ± 0.36
A413E | 0.842 ± 0.12
P148M | 0.633 ± 0.3
P148I | 1.49 ± 0.64
K83W | 0.152 ± 0.05
Q358F | 1.16 ± 0.086
E296G | 1.03 ± 0.25
E296A | 0.699 ± 0.31
V38R | 0.941 ± 0.6
P331S | 0.73 ± 0.42
S332N | 1.56 ± 0.1
G201E | 0.791 ± 0.087
M184I | 0.983 ± 0.13
M184D | -0.962 ± 0.4
M184Q | 0.653 ± 0.15
S338M | 1.32 ± 0.11
R149H | 1.12 ± 0.097
P163H | 0.674 ± 0.3
E229M | 0.122 ± 0.069
P430H | 1.32 ± 0.061
P430C | 0.92 ± 0.36
K114T | 1.19 ± 0.25
K114R | 0.793 ± 0.29
R513C | 0.777 ± 0.16

Variant | AIRE transcriptional activation functional score
E136Y | 1.32 ± 0.34
E136G | 0.816 ± 0.32
H458V | 0.655 ± 0.29
R378T | 0.986 ± 0.46
R378Q | 0.825 ± 0.16
T46D | -0.445 ± 0.23
T232E | 1.05 ± 0.18
D478S | 0.816 ± 0.23
E298H | -2.02 ± 0.31
C302L | 0.555 ± 0.18
C302D | 0.537 ± 0.1
C437H | 0.0985 ± 0.1
V206F | 0.751 ± 0.04
G91M | 1.02 ± 0.041
N244F | 1.08 ± 0.084
G155R | 1.01 ± 0.47
G155P | -0.203 ± 0.099
Q275R | 1.03 ± 0.15
N86A | -0.248 ± 0.42
A19F | 0.0254 ± 0.21
A19S | 0.921 ± 0.61
A19C | 0.605 ± 0.3
L341H | 0.986 ± 0.11
I309P | 1.07 ± 0.11

Variant | AIRE transcriptional activation functional score
A205K | 1.17 ± 0.11
A202K | 0.112 ± 0.15
Q426T | 1.17 ± 0.094
Q189A | 1.25 ± 0.12
Q189N | 0.838 ± 0.34
E307F | 0.273 ± 0.19
R433I | 0.308 ± 0.067
A343K | 0.609 ± 0.059
P282W | 1.1 ± 0.065
P282M | 1.1 ± 0.029
N295L | 1.17 ± 0.36
G242L | 1.13 ± 0.19
L93S | -0.0816 ± 0.29
L93P | 0.0133 ± 0.58
L93F | 0.229 ± 0.059
A500P | 0.844 ± 0.34
A500G | 0.758 ± 0.27
L488G | 1.03 ± 0.27
A450L | 1.22 ± 0.29
D84E | 0.774 ± 0.23
D84F | -0.14 ± 0.21
S156T | 1.75 ± 0.85
H48N | 0.738 ± 0.44
S339V | 0.99 ± 0.15

Variant | AIRE transcriptional activation functional score
S339K | 0.757 ± 0.12
S339M | 0.1 ± 0.043
W455L | 1.03 ± 0.18
W455R | 0.879 ± 0.084
W455A | 1.1 ± 0.27
A317Q | -0.307 ± 0.064
A317N | 0.865 ± 0.082
D288Y | 1.23 ± 0.16
E216C | 0.558 ± 0.042
D23W | -1 ± 0.21
D23N | -0.303 ± 1.1
G150T | 0.661 ± 0.51
P280R | 1.01 ± 0.22
C419V | 1.22 ± 0.3
D238N | 0.588 ± 0.26
P233H | 1.29 ± 0.15
L418M | 0.207 ± 0.085
D34H | 1.62 ± 0.13
L320E | 1.22 ± 0.23
P119I | 1.52 ± 0.17
P119T | 1.59 ± 0.55
P119V | 0.878 ± 0.6
E375V | 1.47 ± 0.34
E375L | 1.47 ± 0.35

Variant | AIRE transcriptional activation functional score
P143Y | 1.39 ± 0.15
P143M | 1.02 ± 0.033
P143D | 1.01 ± 0.31
G218S | 0.817 ± 0.31
G218Y | 0.677 ± 0.28
M388K | 1.05 ± 0.31
H30I | -0.51 ± 0.27
P109K | 0.0515 ± 0.12
P109L | 0.821 ± 0.42
P360F | 1.2 ± 0.2
P360K | 0.715 ± 0.52
G369V | 0.854 ± 0.23
G369D | -0.344 ± 0.25
K259M | 1.2 ± 0.096
Q57K | 1.12 ± 0.16
L28Q | 0.552 ± 0.6
L146H | 0.618 ± 0.53
D70A | -0.203 ± 0.38
E347L | 1.16 ± 0.24
E17Y | -0.411 ± 0.17
R110P | 0.621 ± 0.078
G469L | 0.726 ± 0.3
G469Q | 0.807 ± 0.11
L516R | 0.262 ± 0.2

Variant | AIRE transcriptional activation functional score
K165M | 1.15 ± 0.16
S99Y | -0.311 ± 0.25
Q346P | 1.12 ± 0.27
Q346W | 1.73 ± 0.09
Q346L | 1.2 ± 0.14
Q346T | 1.02 ± 0.21
M194F | 0.394 ± 0.074
H35Y | 0.805 ± 0.27
I533Y | 0.199 ± 0.054
E167L | 1.76 ± 0.47
A73T | 1.01 ± 0.13
A73P | 0.676 ± 0.44
P162R | 0.224 ± 0.29
L520V | 0.478 ± 0.27
L520A | 0.276 ± 0.1
V443Y | 0.882 ± 0.17
S64R | -0.473 ± 0.57
A5G | 0.74 ± 0.35
S195R | 1.13 ± 0.14
R174G | 0.531 ± 0.32
H415P | 1.11 ± 0.11
A31R | -0.0467 ± 0.41
V226K | 0.148 ± 0.13
